These results are taken from patent publication US20160045158A1, “DEVICES, SYSTEMS, AND METHODS FOR TRANSDERMAL DELIVERY OF COMPOUNDS” (PROMETHEON PHARMA, LLC, priority 2013, published 2016).

The subject of data set [1] is keratinized apical layer of the mouse cervix. The conditions noted are these: in vivo.
Description: The P188/PG (80/20 ratio) co-polymer was then used to deliver FITC-tagged 38 amino acid cytotoxic decoy peptides.
To achieve topical delivery of decoy peptides into the entire mouse cervical T-zone, a solid FITC-tagged decoy peptide-containing co-polymer/enhancer rod was manually delivered into the endocervical canal and into one of the 2 cervical/uterine horns of a 7 month old K14E6 homozygous female transgenic mouse expressing the HPV type 16 E6 oncoprotein that synergizes with 1713-estradiol to induce low-grade dysplasia (CIN I, II) in situ that closely mimics the step-wise development of human cervical cancer; the “untreated” cervical served as an internal control.
After animals were anesthetized, a “speculum” comprised of a standard P-100 pipette tip with the tip cut off at the midpoint along its length was inserted into the vagina to expose the opening of the cervical canal. A three-fourth inch long, 24-guage catheter (Teruma Surflush; inner diameter 0.47 mm) with the trocar removed was fit onto a compatible P-10 micropipette. The catheter was loaded with the peptide-containing, liquid co-polymer/enhancer formulation to a length that approximates the entire cervical T-zone and extends across the squamo-columnar junction into the uterine horn. […]
1 mM FITC-conjugated *Br1 was used for direct visualization of peptide delivery by fluorescence microscopy. […]
The test system of data set [2] is EpidermFT™ (MatTek) full thickness human skin equivalent tissues. In words: Transdermal flux/accumulation across EpidermFT full thickness human skin equivalents (Iso-Insulin ELISA of receptor fluid). In kind it is in vitro ADME. As for the experimental part:
Proof-of-concept ex vivo studies of transdermal delivery of long-acting insulin analogues by a poloxamer 188, propylene glycol and lauracopram formulation designated TopiconDM™ were performed using metabolically active full thickness human skin equivalent (HSE) inserts from EpidermFT™ (MatTek) grown on a semi-permeable membrane that allows test compounds to pass through the tissue and accumulate in the receptor fluid on the other side. It is important to note that the term TopiconDM™ is a trademark, is not descriptive of the subject formulation, and is merely an indication of the source of the subject formulation. Thus, the use of the term TopiconDM™ herein shall not be used to affect any trademark rights associated with the term TopiconDM™.
All transdermal delivery in this model occurs exclusively by permeation across the barrier-enhanced stratum corneum. Drug permeation studies were modeled according to classic Franz cell in-sink diffusion studies. Studies were carried out for 5-7 continuous days to determine whether a 7-day TopiconDM™ basal insulin patch containing an insulin or insulin analogue is feasible. A semi-high throughput protocol was developed for the use of EpidermFT™, a barrier enhanced, mitotically and metabolically active human skin tissue model.
To determine the feasibility of creating a 7-day (weekly) TopiconDM™ insulin glargine patch, a protocol was developed in which the tissue inserts were incubated in tissue culture maintenance medium (with serum). All insulin and insulin analogues were commercially purchased and lyophilized. TopiconDM™ insulin glargine formulations were specifically adjusted to pH 4.0; all other insulin formulations were adjusted to pH ˜7 were prepared to deliver doses ranging from 0.01-50 IU in a volume of 50 microliters at 32° C. applied to the apical surface of individual 0.6 cm^2 EpidermFT™ (MatTek) full thickness human skin equivalent tissues in 6-well plates containing 2.0 ml of receptor fluid incubated at 32° C. throughout the duration of each study. It was empirically determined that 50 microliters of the formulations was sufficient to cover the entire surface of the tissue inserts when applied directly to the center. 200 microliter samples from the receptor chamber on the basal side were removed at 0.5, 1, 2, 3, 6, 8, 12, 20, 24 hours and then every 24 hours for up to 7-days; 200 microliters of fresh maintenance medium with serum was added back to receptor chamber after each sampling (closed system model). Plasma insulin and insulin analogue accumulation in mIU/cm^2 (reflecting transdermal delivery across 0.6 cm^2 tissue surface area) was quantified using the Iso-Insulin ELISA Kit (Mercodia AB, Uppsala, Sweden).
The MatTek EpidermFT™ (EFT-300) tissues are also documented to have more of the structural features of the basement membrane. […] The saturating dose for insulin glargine is 10 U/0.6 cm^2 since the flux is not increased at a dose of 20 U/0.6 cm^2. Indeed, the accumulation curves for these doses are superimposable. Results reflect ELISA measurements (Mercodia Iso-Insulin) performed in triplicate for samples at each time point.

The conditions of data set [3]: cited from earlier work.
The format of data set [4] is in vitro ADME, human. The protocol: In human studies, the total plasma free insulin concentration reached a plateau concentration of 18.9 µIU/mL based on a well cited published study of glargine pharmacokinetics after a single subcutaneous injection in type 1 diabetic subjects over 3-24 hours (Lepore, M et al 2000, Diabetes 49:2142-2148). However, the actual steady-state plateau glargine concentration was 6.4 µIU/mL because the patients were titrated to an insulin concentration of ˜12.5 µIU/mL with a continuous lispro short-acting insulin infusion before glargine was administered. After scaling for average adult blood volume of 5 L and adjusting for known cross-reactivity of our ELISA assay with various insulin analogues (44% for glargine, 22% for detemir), a table comparing patch size and insulin dose required to achieve targets of 6.4 µIU/mL within 24 hours after administration of TopiconDM™ containing insulin glargine could be determined. […] However, it is apparent that the 10 IU/0.6 cm^2 dose of insulin glargine can achieve and maintain a target steady-state total insulin concentration of 6.4 µIU/mL with a 0.6×0.6 cm patch throughout the 5-days of the study.
The concentration of insulin glargine achieved is based on accumulation in 2.5 ml of receptor volume in the tissue model extrapolated to average adult blood volume of 5 L. […]

Data set [5] is described as follows: Plasma glargine PK in STZ-induced male CD hairless rats (type 1 DM). In kind it is in vivo, rat. The conditions noted are these: single 2 U subcutaneous injection. The protocol:
(§1) Referring to FIG. 14, shown is a 24 Hour PK/PD study showing rapid appearance in and elimination of SC Injected Glargine from the Systemic Circulation. The red plot is the glargine concentration from pooled plasma (average±std dev of ELISA measurements). Blue plot is blood glucose (BG) concentration (average±std dev) measured by ACCU-CHEK® Aviva glucose meter. Average BG (blue line) and range (white horizontal bar) in normal CD hairless rats was determined to be ˜130 mg/dL (100-160 mg/dL) in a cohort of adult rats weighing ˜250 gm.
ELISA to quantitate the plasma glargine level was performed in triplicate on pooled blood for each time point (alternating N=2 and N=3) using the Mercodia Iso-Insulin kit. Blood samples were pooled to allow for adequate sampling of many time points over the course of 24-hour study and to reduce variability. This method has been validated for performing PK studies.
(§2) Green plot is plasma glargine concentration (average±std dev). Brown plot is blood glucose concentration (average±std dev) measured by ACCU-CHEK® Aviva glucose meter. Measurements were obtained from all individual animals (N=4) at each time point (i.e. blood samples were not pooled). ELISA to quantitate the plasma glargine level was performed in triplicate on blood samples from individual animals (N=4) at each time point using the Mercodia Iso-Insulin kit.

In data set [6] the test system is STZ-Induced Male CD Hairless Rat: Type 1 DM. In words: Blood glucose PD in STZ-induced male CD hairless rats (type 1 DM). The data set is classed as in vivo. As for the experimental part: as §1
PD (Y-axis scale on right): The blood glucose (BG) and plasma glargine plots are essentially minor images of each other, consistent with an expected dramatic BG lowering effect after insulin glargine injection. The baseline mean BG of ˜375 mg/dL rapidly reached a nadir of ˜70-80 mg/dL that was persistent between 0.5-5 hours, representing asymptomatic hypoglycemia.
as §2
Referring to FIG. 16, A PD study of insulin glargine BG lowering effect comparing 1 U subcutaneous (sc) injection (gold standard) versus 5 U/1 cm^2 patch was performed. Referring to FIG. 18, the blue plot is BG concentration (average±std dev) of rats that received a single 1 U subcutaneous injection. Brown plot is BG concentration of rats that received a 5 U/1 cm^2 patch. BG measurements by ACCU-CHEK® Aviva glucose meter were obtained from all individual animals (N=4) at each time point (i.e. blood samples were not pooled). ELISA to quantitate the plasma glargine level was performed in triplicate on blood samples from individual animals (N=4) at each time point using the Mercodia Iso-Insulin kit.

For “ERQIKIWFQNRRMKWKKATGCLLDDGLEGLFEDID [*Br1]”, the “penetration across keratinized apical layer of mouse cervix / cervical squamous epithelium” value in data set [1] is on record as “Successful transdermal delivery”.

For “Human growth hormone (hGH): human growth hormone (22 kDa)”, the flux dose-response entry in data set [2] is “clear dose-response”.

With insulin aspart, in data set [2], the flux dose-response result is reported as “clear dose-response”.

Consider insulin detemir, for which, in data set [3] (single 0.5 U/kg dose, patients with type 1 DM), the Cmax for adults is 208 microU/mL.

Regarding insulin glargine, in data set [4], the “size of patch required to achieve and maintain target levels” value is “under 1 cm×1 cm”. Besides, in data set [5], the “return of plasma concentration to baseline level” value was no more than 5 h and the t1/2 was roughly 2 h. In data set [5] (adult rats ~250 gm), the “Cmax (plasma glargine)” value is given as roughly 120 microU/mL. In data set [2], the flux dose-response result is “clear dose-response” and the “saturating dose (flux not increased at 20 U/0.6 cm^2)” value turned out to be 10 U/0.6 cm^2. In data set [3] (after subtracting ~12.5 µIU/mL lispro infusion background), the “actual steady-state plateau glargine concentration” value is given as 6.4 µIU/mL. The “total plasma free insulin plateau concentration” value in data set [3] (single subcutaneous injection of glargine, type 1 diabetic subjects, over 3-24 hours (Lepore 2000)) was 18.9 µIU/mL. In data set [3] (single subcutaneous injection, patients with type 1 diabetes), the “mean plateau plasma concentration” value was roughly 6.4 micoU/mL. For the same substance, the “hypoglycemia (BG<100 mg/dL)” value in data set [6] (1 U sc injection) is reported as “rapidly became hypoglycemic”. Also, the “hypoglycemia (BG<100 mg/dL)” value in data set [6] (2 U sc injection) is “rapidly became hypoglycemic”. In addition, in data set [6] (2 U subcutaneous injection), the “period during which blood glucose nadir persisted” value is 0.5 to 5 h. Also, the blood glucose nadir in data set [6] (2 U subcutaneous injection, baseline mean BG ~375 mg/dL) fell in the range of 70 to 80 mg/dL.

insulin glulisine: the flux dose-response entry in data set [2] was “clear dose-response”.

As for insulin lispro, in data set [2], the flux dose-response result was “clear dose-response”.
